Molecular target: T1, human 4-1BB (Homo sapiens, UniProt Q07011)
T1 construct: host or cells: 4-1BB reporter cells of the Promega bioassay, alone or co-cultured with tumor cells (A549, MDA-MB-231, CT26, PC3, SKOV3)
Experiment: 4-1BB activation, inducible reporter cell system with or without tumor cells
Format: cell-based
Settings: reporter cells alone or co-cultured with A549 tumor cells; 5 hours
Method: After confirming that they retained the ability to bind to PC3 cells, the EphA2-4-1BB bispecific antibodies were assayed for their ability to activate human 4-1BB using an inducible reporter cell system (Promega cat JA2351). […] reporter cells were either cultured alone with the EphA2-4-1BB bispecific antibodies or co-cultured with A549 tumor cells that had been treated with the EphA2-4-1BB bispecific antibodies. The 4-1BB antibody Urelumab (AB-009811) was included as a non-tumor targeting control. After 5 hours of culture, 4-1BB activation was determined from the reporter cells by measuring bioluminescence output.
The activation assay was repeated using MDA-MB-231, CT26, or PC3 tumor cells. […] FIG. 19A-D.
Constructs that comprise AB-008873 fused with h41BBL (THD)3-2 were generated and assayed for the ability to activate 4-1BB for tumor cell lines A549, MDA-MB231, SKOV3, and PC3, as described above for the EphA2-4-1BB bispecific antibodies. AB-009811 was included as a positive control and 5554-41BBL (THD) 3-10 or 5554-41BBL (THD) 3-2 was used as a negative control. […] FIG. 19E.

T1 sequence (Q07011 24-255): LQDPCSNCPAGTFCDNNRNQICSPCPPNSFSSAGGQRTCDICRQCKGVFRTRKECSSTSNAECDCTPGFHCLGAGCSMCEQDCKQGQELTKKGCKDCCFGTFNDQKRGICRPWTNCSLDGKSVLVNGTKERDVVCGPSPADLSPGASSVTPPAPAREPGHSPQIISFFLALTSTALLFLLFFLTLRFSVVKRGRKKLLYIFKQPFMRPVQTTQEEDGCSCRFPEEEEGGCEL

“Urelumab: 4-1BB antibody included as a non-tumor targeting control” was tested, and the “4-1BB activation with and without tumor cells” value was “activated 4-1BB with us without the presence of tumor cells”.

Reference: US20250276077A1, “EPHA2 ANTIBODIES” (Immunome, Inc., priority 2022, published 2025)
